The text below walks through data of patent US20190345227A1 (HONG KONG UNIVERSITY OF SCIENCE AND TECHNOLOGY, published 2019).

Assay [1] addresses T1, SpyCatcher-elastin-CarHC-elastin-SpyCatcher.
T1 construct: Recombinant telechelic fusion protein (68 kDa) with two TEV protease sites, expressed in E. coli; also called BCB; SpyCatcher-ELP-carHC-ELP-SpyCatcher
In words: Dynamic shear rheology and erosion tests of the covalently cross-linked (SpyTag-SpyCatcher) hydrogel. An excerpt:
Protein drugs, an important category of modem therapeutics, have a short half-life time inside the body because of rapid plasma clearance and proteolytic degradation, which constitutes a fundamental challenge for their delivery. The feasibility of using the photoresponsive CarHC-ELP hydrogel system to encapsulate and release protein molecules in a controlled manner was investigated. Two recombinant proteins, SpyTag-elastin-like polypeptide-SpyTag-elastin-like polypeptide-SpyTag (represented by the structural linkage “AAA”) (FIG. 6 and FIG. 13) and BCB, were synthesized with an elastin protein fragment to generate a covalently cross-linked ELP hydrogel. The two proteins were dissolved in PBS to make 10 wt % solutions. Gelation was initiated by mixing the two components at a 2:3 molar ratio and a stoichiometric amount of AdoB₁₂ in the dark. Dynamic shear rheology experiments in time-, frequency- and strain-sweep modes and erosion tests further confirmed the formation of a stable hydrogel (G′=0.96 kPa and G″=0.03 Pa) by AAA+BCB+AdoB₁₂ (FIGS. 14A-14C, respectively, and FIG. 15).

Assay [2] concerns the target T1, SpyCatcher-elastin-CarHC-elastin-SpyCatc …. Kind of assay: Size-exclusion chromatography of the ACA+BCB reaction product and of the light-degraded gel. The major peak eluted at the void volume. The SpyTag-SpyCatcher bond is covalent. On the procedure:
Using an Escherichia coli expression system, sufficient amounts of the ACA (98 mg/L) and BCB (66 mg/L) proteins with high purity (FIG. 6-9) were produced and isolaged. After extensive dialysis against distilled water and lyophilization, the resulting protein powders were readily dissolved in PBS. The two protein solutions, ACA and BCB (10 wt % in PBS), were mixed at an equimolar ratio immediately followed by addition of a stoichiometric amount of AdoB 12 to initiate gelation at room temperature in the dark. A red gel-like material was formed within 5 min; the gelation typically continued for at least 7 h in the dark before any subsequent analysis. The resulting gel was sensitive to light and converted to liquid on exposure to white LED light (30 klux) within 20 min (FIG. 2B). observed gel-sol transition can be explained by the light-induced disassembly of CarHC tetramers (FIGS. 1A & 1B). […] This SEC result further confirmed a sufficient pymerization of the CarHC proteins enabled by the SpyTag-SpyCatcher reaction during gelation.
For orientation: Size exclusion chromatography separates by hydrodynamic size, large species first.

B1: SpyTag-elastin-like polypeptide-SpyTag-elastin-like polypeptide-SpyTag (other)
chain: MKGSSHHHHHHVDAHIVMVDAYKPTKLDGHGVGVPGVGVPGVGVPGEGVPGVGVPGVGVPGVGVPGVGVPGEGVPGVGVPGVGVPGVGVPGVGVPGEGVPGVGVPGVGELAHIVMVDAYKPTKTSVPGVGVPGVGVPGEGVPGVGVPGVGVPGVGVPGVGVPGEGVPGVGVPGVGVPGVGVPGVGVPGEGVPGVGVPGVGVPGGLLDAHIVMVDAYKPTKLEWKK
notes: Recombinant protein with three SpyTags; It forms the covalent network with BCB; also called AAA; SpyTag-ELP-SpyTag-ELP-SpyTag
On to B1, for which the binding result in assay [1] is recorded as “binds”.

B2: SpyTag-elastin-CarHC-elastin-SpyTag (other)
chain: MKGSSHHHHHHVDAHIVMVDAYKPTKLDGHGVGVPGVGVPGVGVPGEGVPGVGVPGVGVPGVGVPGVGVPGEGVPGVGVPGVGVPGVGVPGVGVPGEGVPGVGVPGVGELPEDLGTGLLEALLRGDLAGAEALFRRGLRFWGPEGVLEHLLLPVLREVGEAWHRGEIGVAEEHLASTFLRARLQELLDLAGFPPGPPVLVTTPPGERHEIGAMLAAYHLRRKGVPALYLGPDTPLPDLRALARRLGAGAVVLSAVLSEPLRALPDGALKDLAPRVFLGGQGAGPEEARRLGAEYMEDLKGLAEALWLPRGPEKEAITSVPGVGVPGVGVPGEGVPGVGVPGVGVPGVGVPGVGVPGEGVPGVGVPGVGVPGVGVPGVGVPGEGVPGVGVPGVGVPGGLLDAHIVMVDAYKPTKLEWKK
notes: Recombinant telechelic fusion protein (41 kDa) expressed in E. coli and purified on HisTrap; also called ACA; SpyTag-ELP-carHC-ELP-SpyTag
Take B2: in assay [2], the binding result was “binds”.
